This experiment has as its target T1, SARS-CoV-2 nucleocapsid protein (SARS-CoV-2, UniProt P0DTC9 1-419).
T1 construct: also called NCAP; N-capsid

Results on one molecule are retold here after patent publication US20250155438A1 (KING ABDULAZIZ UNIVERSITY, published 2025).

B1: anti-NCAP-2 nanobody (VHH, not shown: small tags and cut ends)
VHH: QVQLVESGGALMQAGGSLRLSCAVSGIRLGYYTIAWFRQAPGKEREGISCISRSEGSTYYADSVKGRFTISTENAENTVYLQMNSLKPDDTAVYYCAVDFVPASHCAVANTKGYDYWGQGTQVTVSS
notes: also called N Capsid nanobody NCAP-2
With B1, the binding result is recorded as “binds”.
